According to patent US20260274980A1 (BIOARCTIC, published 2026):

What follows are binders tested against T1, human transferrin receptor 1 (hTfR1) on cell surfaces (human, UniProt P02786 1-760) (assay: flow cytometry on Ramos cells (hTfR1 on the surface), Fc receptors blocked, overnight at 4 °C, detection with anti-human IgG-Alexa Fluor 488).
T1 construct: Endogenous receptor on hCMEC/D3, THP-1, K562 and Ramos cells; also called CD71; endogenous hTfR1
Protocol: Binding to hTfR1 on cells was measured on the immortalized human B lymphocyte cell line Ramos (Sigma, cat: 85030802). This cell line is known for expressing high levels of hTfR1 on the cell surface. Fcγ receptors were blocked using Fc receptor blocker (Innovex biosciences, #NB309-4X-40) for 30 min at 4° C., after which the cells were washed in PBS. The cells were seeded in a 96 well V bottom plate (#249570, Thermo Scientific Nunc), and serially diluted Gen 2A constructs were added and the plate was incubated at 4° C. overnight. The cells were washed with PBS with 1% BSA and then fixed with freshly prepared 4% formaldehyde (Thermo Scientific Pierce, #28906) diluted in PBS for 15 min at room temperature. The cells were washed with PBS containing 1% BSA, and then stained. […] Staining was carried out for 30 min at 4° C. After incubation with the detection reagent, cells were washed with PBS containing 1% BSA. The cells were finally resuspended in 200 μl PBS with 1% BSA and acquired using a BD FACSLyric flow cytometer system (BD Biosciences). Samples were analyzed using flowJo software (BD Biosciences).

T1 sequence (P02786 whole entry): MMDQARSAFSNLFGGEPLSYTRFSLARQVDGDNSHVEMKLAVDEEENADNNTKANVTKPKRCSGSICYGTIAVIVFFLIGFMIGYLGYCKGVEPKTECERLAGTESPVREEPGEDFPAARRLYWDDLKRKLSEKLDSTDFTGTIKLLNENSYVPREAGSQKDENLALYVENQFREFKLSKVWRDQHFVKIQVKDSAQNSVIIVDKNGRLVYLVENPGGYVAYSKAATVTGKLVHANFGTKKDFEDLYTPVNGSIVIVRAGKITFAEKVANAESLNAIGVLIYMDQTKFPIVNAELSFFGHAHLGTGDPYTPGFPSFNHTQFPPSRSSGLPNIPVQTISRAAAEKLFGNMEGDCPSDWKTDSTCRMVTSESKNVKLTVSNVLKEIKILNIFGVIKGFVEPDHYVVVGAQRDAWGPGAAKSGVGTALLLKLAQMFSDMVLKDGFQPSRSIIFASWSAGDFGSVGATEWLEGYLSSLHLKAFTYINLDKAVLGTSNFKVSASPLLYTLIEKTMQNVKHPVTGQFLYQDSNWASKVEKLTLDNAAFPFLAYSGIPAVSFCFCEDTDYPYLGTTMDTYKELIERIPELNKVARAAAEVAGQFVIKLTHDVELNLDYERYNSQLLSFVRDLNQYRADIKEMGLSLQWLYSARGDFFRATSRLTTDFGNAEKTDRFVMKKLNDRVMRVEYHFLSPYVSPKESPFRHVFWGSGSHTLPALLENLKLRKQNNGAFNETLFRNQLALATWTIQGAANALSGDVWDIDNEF

| binding result | Binder |
| --- | --- |
| binds | 2A-3 #2 (bispecific antibody, human IgG1, kappa, also called Gen 2A construct #2; VH first) heavy: not shown DIVMTQAPLSLPVSLGDQASISCRSSQSIVHSNGNTYLEWYLQKPGQSPKLLIYKVSNRFSGVPDRFSGSGSGTDFTLKISRVEAEDLGIYYCFQGSHVPPTFGGGTKLEIKRTVAAPSVFIFPPSDEQLKSGTASVVCLLNNFYPREAKVQWKVDNALQSGNSQESVTEQDSKDSTYSLSSTLTLSKADYEKHKVYACEVTHQGLSSPVTKSFNRGECGGGGSGGGGSEVQLVQSGAEVKKPGSSVKVSCKASGYIFTDYNMDWVRQAPGQGLEWIGDINPDADTTSYNEKFKGRATLTVDKSTSTAYMELSSLRSEDTAVYYCARGGYSGSSYYHPMDYWGQGTLVTVSSGGGGSGGGGSGGGGSDIQMTQSPSSVSASVGDRVTITCKSSQSLLYSTNQKNYLAWYQQKPGKAPKLLIYWASTRESGVPSRFSGSGSGTDFTLTISSLQPEDFATYYCQQYFIYPRTFGQGTKVEIKGGGGSGGGGSGGGGSGGGGSDIVMTQAPLSLPVSLGDQASISCRSSQSIVHSNGNTYLEWYLQKPGQSPKLLIYKVSNRFSGVPDRFSGSGSGTDFTLKISRVEAEDLGIYYCFQGSHVPPTFGGGTKLEIKRTVAAPSVFIFPPSDEQLKSGTASVVCLLNNFYPREAKVQWKVDNALQSGNSQESVTEQDSKDSTYSLSSTLTLSKADYEKHKVYACEVTHQGLSSPVTKSFNRGEC |
| binds | 2A-3 #1 (bispecific antibody, human IgG1, kappa, also called Gen 2A construct #1; VH first) heavy: not shown DIVMTQAPLSLPVSLGDQASISCRSSQSIVHSNGNTYLEWYLQKPGQSPKLLIYKVSNRFSGVPDRFSGSGSGTDFTLKISRVEAEDLGIYYCFQGSHVPPTFGGGTKLEIKRTVAAPSVFIFPPSDEQLKSGTASVVCLLNNFYPREAKVQWKVDNALQSGNSQESVTEQDSKDSTYSLSSTLTLSKADYEKHKVYACEVTHQGLSSPVTKSFNRGECGGGGSEVQLVQSGAEVKKPGSSVKVSCKASGYIFTDYNMDWVRQAPGQGLEWIGDINPDADTTSYNEKFKGRATLTVDKSTSTAYMELSSLRSEDTAVYYCARGGYSGSSYYHPMDYWGQGTLVTVSSGGGGSGGGGSGGGGSDIQMTQSPSSVSASVGDRVTITCKSSQSLLYSTNQKNYLAWYQQKPGKAPKLLIYWASTRESGVPSRFSGSGSGTDFTLTISSLQPEDFATYYCQQYFIYPRTFGQGTKVEIKGGGGSGGGGSGGGGSGGGGSDIVMTQAPLSLPVSLGDQASISCRSSQSIVHSNGNTYLEWYLQKPGQSPKLLIYKVSNRFSGVPDRFSGSGSGTDFTLKISRVEAEDLGIYYCFQGSHVPPTFGGGTKLEIKRTVAAPSVFIFPPSDEQLKSGTASVVCLLNNFYPREAKVQWKVDNALQSGNSQESVTEQDSKDSTYSLSSTLTLSKADYEKHKVYACEVTHQGLSSPVTKSFNRGEC |
| binds | 2A-3 #4 (bispecific antibody, human IgG1, kappa, also called Gen 2A construct #4; VH first) heavy: not shown DIVMTQAPLSLPVSLGDQASISCRSSQSIVHSNGNTYLEWYLQKPGQSPKLLIYKVSNRFSGVPDRFSGSGSGTDFTLKISRVEAEDLGIYYCFQGSHVPPTFGGGTKLEIKRTVAAPSVFIFPPSDEQLKSGTASVVCLLNNFYPREAKVQWKVDNALQSGNSQESVTEQDSKDSTYSLSSTLTLSKADYEKHKVYACEVTHQGLSSPVTKSFNRGECGGGGSEVQLVQSGAEVKKPGSSVKVSCKASGYIFTDYNMDWVRQAPGQGLEWIGDINPDADTTSYNEKFKGRATLTVDKSTSTAYMELSSLRSEDTAVYYCARGGYSGSSYYHPMDYWGQGTLVTVSSGGGGSGGGGSGGGGSDIQMTQSPSSVSASVGDRVTITCKSSQSLLYSTNQKNYLAWYQQKPGKAPKLLIYWASTRESGVPSRFSGSGSGTDFTLTISSLQPEDFATYYCQQYFIYPRTFGQGTKVEIKGGGGSGGGGSGGGGSGGGGSGGGGSDIVMTQAPLSLPVSLGDQASISCRSSQSIVHSNGNTYLEWYLQKPGQSPKLLIYKVSNRFSGVPDRFSGSGSGTDFTLKISRVEAEDLGIYYCFQGSHVPPTFGGGTKLEIKRTVAAPSVFIFPPSDEQLKSGTASVVCLLNNFYPREAKVQWKVDNALQSGNSQESVTEQDSKDSTYSLSSTLTLSKADYEKHKVYACEVTHQGLSSPVTKSFNRGEC |
